Laboratory results reported in article PMC7714071, “Interaction of amyloid beta with humanin and acetylcholinesterase is modulated by ATP” (FEBS Open Bio, 2020).

Columns and labels:
[1] = tested on: HN-Aβ complex (H1299 cell-conditioned media); assay: ELISA, HN found in a complex with Aβ in H1299 cell-conditioned media; assay type: binding, human; conditions: ATP 100 μM, 1 mM; increased levels, compared with A549 media; Fig. 5C,D
Protocol: Human NSCLC cell lines, A549 (ATCC CCL‐185) and H1299 (ATCC CRL‐5803), were purchased from the American Type Culture Collection (ATCC, Manassas, VA, USA). Cells were seeded as we reported earlier in 5 mL HyClone Dulbecco's modified Eagle's medium/nutrient mixture F‐12 (DMEM/F12) (GE Healthcare Life Sciences, Pittsburgh, PA, USA), supplemented with 10% Fetalgro bovine growth serum (FBS; RMBIO, Missoula, MT, USA), 50 U·mL^−1 penicillin, and […] streptomycin (Invitrogen, Life Technologies, Carlsbad, CA, USA) in 25‐cm^2 tissue culture flasks, and allowed to grow overnight in an incubator at 37 °C, 95% humidity, and 5% CO2. The cells were counted after trypan blue staining, with a hemocytometer.
ELISAs were carried out as we previously reported. […] TBST was then used to wash the wells 4× before proceeding in one of two ways: (a) biotinylated samples were analyzed by adding 100 µL streptavidin–HRP conjugate in TBST (1 : 2500 dilution) to the samples followed by incubation for 3 h at RT on a shaker, or (b) samples without biotin were analyzed by adding 100 µL TBST containing the primary antibody as per the manufacturer's recommendation, incubating for 3 h at RT on a shaker, followed by washing the wells 4× with TBST. […] The reaction was stopped with 100 µL 2 M H2SO4 after incubating at RT for 0.5–15 min, resulting in a yellow color change, measured by absorbance at 450 nm. […]

H1299 cells = conditions: cited from earlier work

Nc1ncnc2c1ncn2[C@@H]1O[C@H](COP(=O)(O)OP(=O)(O)OP(=O)(O)O)[C@@H](O)[C@H]1O [ATP, Adenosine triphosphate]
levels of HN bound to Aβ in the presence of ATP [1]: also comparable

Humanin [HN]
cell viability upon ID of HN (H1299 cells; HN immunodepleted from H1299 conditioned media): diminished cell viability | apoptosis upon ID of HN (H1299 cells; HN-ID H1299 media): increased apoptosis
